Laboratory results from patent EP3831849A1 (LamKap Bio beta AG, dated 2021).
Numbering of substitutions follows the chain as printed. Like-named read-outs stand apart in the source and are kept apart here. Each block holds one binder with its values, some of them ahead of it.

How the values were obtained:
[1] = molecular target: T1, biotinylated recombinant human CEACAM5 (human, UniProt P06731 35-685, biotin on the C-terminal Avitag); assay: reference mAb in the competition ELISA on biotinylated human CEACAM5
T1 construct: also called CD66e; not shown: C-terminal Avitag plus hexa-histidine tag, human Fc or mouse Fc
T1 sequence: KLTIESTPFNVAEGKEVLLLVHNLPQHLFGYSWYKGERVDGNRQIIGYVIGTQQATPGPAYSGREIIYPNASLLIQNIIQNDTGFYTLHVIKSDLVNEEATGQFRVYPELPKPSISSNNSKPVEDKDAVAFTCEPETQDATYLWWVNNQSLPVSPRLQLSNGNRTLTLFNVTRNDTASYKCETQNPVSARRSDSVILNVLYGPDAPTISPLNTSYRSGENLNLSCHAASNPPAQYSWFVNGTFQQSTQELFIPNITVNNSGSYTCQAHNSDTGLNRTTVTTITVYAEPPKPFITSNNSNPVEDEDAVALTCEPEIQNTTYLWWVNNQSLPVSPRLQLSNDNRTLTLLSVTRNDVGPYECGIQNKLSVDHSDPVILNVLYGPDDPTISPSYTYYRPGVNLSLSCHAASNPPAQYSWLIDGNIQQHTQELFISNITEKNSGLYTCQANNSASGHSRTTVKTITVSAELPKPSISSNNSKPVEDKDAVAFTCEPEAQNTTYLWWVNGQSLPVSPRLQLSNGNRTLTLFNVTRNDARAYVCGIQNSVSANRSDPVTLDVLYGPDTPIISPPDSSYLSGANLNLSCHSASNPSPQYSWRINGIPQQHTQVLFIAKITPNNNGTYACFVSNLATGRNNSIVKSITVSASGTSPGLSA

[2] = molecular target: T2, human CEACAM5 expressed on MKN-45 wt cells (human, UniProt P06731 35-702); assay: cell-based or functional assay
T2 sequence: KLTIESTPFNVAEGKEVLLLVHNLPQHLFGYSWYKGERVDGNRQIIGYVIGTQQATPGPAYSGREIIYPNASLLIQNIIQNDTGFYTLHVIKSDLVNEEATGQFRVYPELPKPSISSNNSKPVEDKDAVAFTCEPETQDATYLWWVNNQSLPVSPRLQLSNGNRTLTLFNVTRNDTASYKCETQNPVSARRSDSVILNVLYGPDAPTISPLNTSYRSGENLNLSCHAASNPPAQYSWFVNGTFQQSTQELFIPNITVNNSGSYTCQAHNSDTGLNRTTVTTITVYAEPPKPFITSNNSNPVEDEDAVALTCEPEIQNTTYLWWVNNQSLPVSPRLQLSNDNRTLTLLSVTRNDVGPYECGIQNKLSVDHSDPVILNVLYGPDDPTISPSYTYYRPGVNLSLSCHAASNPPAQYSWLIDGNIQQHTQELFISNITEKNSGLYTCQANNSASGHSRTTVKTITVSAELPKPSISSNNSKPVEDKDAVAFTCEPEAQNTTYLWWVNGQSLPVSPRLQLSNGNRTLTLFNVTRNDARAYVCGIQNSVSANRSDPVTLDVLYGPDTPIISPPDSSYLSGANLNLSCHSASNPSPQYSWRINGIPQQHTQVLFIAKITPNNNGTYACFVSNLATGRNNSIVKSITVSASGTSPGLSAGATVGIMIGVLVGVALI

[3] = molecular target: T1, biotinylated recombinant human CEACAM5; assay: ELISA; biotinylated recombinant protein on streptavidin plate; bivalent mAb titrated
[4] = molecular target: T3, recombinant cynomolgus monkey CEACAM5 (cynomolgus monkey (macaca fascicularis)); assay: as above
T3 construct: also called cyno CEACAM5; cynomolgus CEACAM5

[5] = molecular target: T1, biotinylated recombinant human CEACAM5; assay: as above; remark: listed apart in the source
[6] = molecular target: T2, human CEACAM5 expressed on MKN-45 wt …; assay: cell-based or functional assay; remark: listed apart in the source
[7] = molecular target: T2, human CEACAM5 expressed on MKN-45 wt …; assay: flow cytometry on MKN-45 wt cells (express CEACAM5 and CD47)
[8] = molecular target: T4, human CD47 expressed at the surface of MKN45 cells (human, UniProt Q08722 19-323); assay: inhibition of SIRPα mouseFc binding to CD47 on MKN45 cells; imaging (CX5)
T4 construct: whole, on cells; also called IAP
T4 sequence (Q08722 19-323): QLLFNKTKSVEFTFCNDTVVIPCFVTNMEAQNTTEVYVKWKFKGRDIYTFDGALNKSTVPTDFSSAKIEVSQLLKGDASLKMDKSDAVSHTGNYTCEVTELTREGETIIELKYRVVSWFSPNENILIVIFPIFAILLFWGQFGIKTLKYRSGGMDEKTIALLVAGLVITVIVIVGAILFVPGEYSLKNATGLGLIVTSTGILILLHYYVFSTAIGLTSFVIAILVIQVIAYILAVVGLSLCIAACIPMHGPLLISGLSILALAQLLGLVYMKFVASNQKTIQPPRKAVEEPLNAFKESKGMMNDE

binding result [1]: binds
B1: SAR (antibody, V domains shown)
VH: EVQLVESGGGLVQPGGSLRLSCAASGFVFSSYDMSWVRQAPGKGLEWVSYISSGGGITYYADSVKGRFTISRDNSKNTLYLQMNSLRAEDTAVYYCAAHYFGSSGPFAYWGQGTLVTVSS
VL: DIQMTQSPSSLSASVGDRVTITCRASENIFSYLAWYQQKPGKAPKLLIYNTRTLQSGVPSRFSGSGSGTDFTLTISSLQPEDFATYYCQHHYGTPFTFGQGTKLEIK
notes: also called mAb derived from Mab2_VLg5VHg2

EC50 (µg/mL) of phagocytosis [2]: 0.07 µg/mL
B2: K2AC50 (bispecific antibody, human IgG1, kappa, lambda)
heavy: not shown
light 1: QSALTQPASVSGSPGQSITISCTGTSSDVYEFRLVSWYQQHPGKAPKLMIYFDSLRPSGVSNRFSGSKSGNTASLTISGLQAEDEADYYCSSWDKFGYAFNSVFGGGTKLTVLGQPKAAPSVTLFPPSSEELQANKATLVCLISDFYPGAVTVAWKADSSPVKAGVETTTPSKQSNNKYAASSYLSLTPEQWKSHRSYSCQVTHEGSTVEKTVAPTECS
light 2: not shown

binding result [1]: binds
B3: SM3E (antibody, V domains shown)
VH: QVKLEQSGAEVVKPGASVKLSCKASGFNIKDSYMHWLRQGPGQRLEWIGWIDPENGDTEYAPKFQGKATFTTDTSANTAYLGLSSLRPEDTAVYYCNEGTPTGPYYFDYWGQGTLVTVSS
VL: ENVLTQSPSSMSVSVGDRVNIACSASSSVPYMHWLQQKPGKSPKLLIYLTSNLASGVPSRFSGSGSGTDYSLTISSVQPEDAATYYCQQRSSYPLTFGGGTKLEIK
notes: also called anti-CEACAM5 antibody SM3E

EC50 [3]: 0.1 nM | EC50 [4]: 0.03 nM | EC50 [5]: 0.1 nM
B4: AC49 (antibody, human IgG1, lambda, V domains shown)
VH: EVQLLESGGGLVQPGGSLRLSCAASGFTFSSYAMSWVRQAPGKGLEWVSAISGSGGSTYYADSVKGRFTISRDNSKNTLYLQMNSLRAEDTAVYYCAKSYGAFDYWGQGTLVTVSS
VL: QSVLTQPPSVSAAPGQKVTISCSGSSSNIFDSGVSWYQQLPGTAPKLLIYNHNERPSGIPDRFSGSKSGTSATLGITGLQTGDEADYYCGTWDFPPSRFVFGGGTKLTVLG
notes: Bivalent IgG1 mAb; 6 carries the IgG1 Fc; also called CEACAM5/CEACAM6 mAb AC49

EC50 (µg/mL) of phagocytosis [2]: 0.3 µg/mL
B5: K2AC49 (bispecific antibody, human IgG1, kappa, lambda)
heavy: not shown
light 1: QSVLTQPPSVSAAPGQKVTISCSGSSSNIFDSGVSWYQQLPGTAPKLLIYNHNERPSGIPDRFSGSKSGTSATLGITGLQTGDEADYYCGTWDFPPSRFVFGGGTKLTVLGQPKAAPSVTLFPPSSEELQANKATLVCLISDFYPGAVTVAWKADSSPVKAGVETTTPSKQSNNKYAASSYLSLTPEQWKSHRSYSCQVTHEGSTVEKTVAPTECS
light 2: not shown

EC50 [3]: 0.09 nM | EC50 [4]: 0.05 nM | EC50 [5]: 0.09 nM
B6: AC50 (antibody, human IgG1, lambda, V domains shown)
VH: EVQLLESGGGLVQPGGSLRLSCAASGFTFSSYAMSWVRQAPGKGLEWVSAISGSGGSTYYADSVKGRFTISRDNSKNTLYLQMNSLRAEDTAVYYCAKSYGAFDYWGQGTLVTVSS
VL: QSALTQPASVSGSPGQSITISCTGTSSDVYEFRLVSWYQQHPGKAPKLMIYFDSLRPSGVSNRFSGSKSGNTASLTISGLQAEDEADYYCSSWDKFGYAFNSVFGGGTKLTVLG
notes: Bivalent IgG1 mAb; 6 carries the IgG1 Fc; also called CEACAM5/CEACAM6 mAb AC50

EC50 (µg/mL) of phagocytosis [6]: 0.3 µg/mL | EC50 [7]: 19 nM | Emax (MFI) [7]: 2.75e+06 MFI | IC50 [8]: 0.16 nM
B7: K2AC54 (bispecific antibody, human IgG1, kappa, lambda)
heavy: not shown
light 1: QSVLTQPPSVSGAPGQRVTISCTGSSSNIHDVGYVHWYQQLPGTAPKLLIYGASGRPSGVPDRFSGSKSGTSASLAITGLQAEDEADYYCQSYDTRQVVPTPVFGGGTKLTVLGQPKAAPSVTLFPPSSEELQANKATLVCLISDFYPGAVTVAWKADSSPVKAGVETTTPSKQSNNKYAASSYLSLTPEQWKSHRSYSCQVTHEGSTVEKTVAPTECS
light 2: not shown
notes: 6 is full length

EC50 (µg/mL) of phagocytosis [6]: 5 µg/mL | EC50 [7]: 47 nM | Emax (MFI) [7]: 1.59e+06 MFI | IC50 [8]: 2.8 nM
B8: K2AC56 (bispecific antibody, human IgG1, kappa, lambda)
heavy: not shown
light 1: B7 light 1 with H30I, D31N, V32N, G33S, G52A, A53P, G55N, R96T, Q97G, V99M
light 2: not shown
notes: 6 is full length

EC50 (µg/mL) of phagocytosis [6]: 0.9 µg/mL | EC50 [7]: 221 nM | Emax (MFI) [7]: 3.9e+06 MFI | IC50 [8]: 1.6 nM
B9: K2AC55 (bispecific antibody, human IgG1, kappa, lambda)
heavy: not shown
light 1: B7 light 1 with R96S, Q97A, V99F
light 2: not shown
notes: 6 is full length

EC50 (µg/mL) of phagocytosis [6]: 0.8 µg/mL | EC50 [7]: 38 nM | Emax (MFI) [7]: 2.63e+06 MFI | IC50 [8]: 0.3 nM
B10: K2AC53 (bispecific antibody, human IgG1, kappa, lambda)
heavy: not shown
light 1: B7 light 1 with T95G, Q97A, V99F
light 2: not shown
notes: 6 is full length

EC50 (µg/mL) of phagocytosis [6]: 1.6 µg/mL | EC50 [7]: 91 nM | Emax (MFI) [7]: 2.26e+06 MFI | IC50 [8]: 1.1 nM
B11: K2AC57 (bispecific antibody, human IgG1, kappa, lambda)
heavy: not shown
light 1: B7 light 1 with H30I, D31N, V32N, G33S, G52A, A53P, G55N, Q97F
light 2: not shown
notes: 6 is full length

EC50 (µg/mL) of phagocytosis [6]: 1 µg/mL | EC50 [7]: 219 nM | Emax (MFI) [7]: 3.3e+06 MFI | IC50 [8]: 1.1 nM
B12: K2AC52 (bispecific antibody, human IgG1, kappa, lambda)
heavy: not shown
light 1: B7 light 1 with R96K, Q97R, V98E, V99F
light 2: not shown
notes: 6 is full length
